In doi:10.1101/2021.01.13.426364 (bioRxiv, 2021):
Where a chain is given by its changes, count along the chain named. Names and notes keep the numbering of the source.

Assays:
crystal structure = target: the molecule itself; experiment: crystal structure
[1] = target: T1, Variant Surface Glycoprotein VSG2 on living VSG2-expressing bloodstream form trypanosomes (Trypanosoma brucei, UniProt P26332); experiment: flow cytometry on cells
[2] = target: T2, Variant Surface Glycoprotein VSG2, soluble purified form (Trypanosoma brucei, UniProt P26332); experiment: crystal structure
[3] = target: T1, Variant Surface Glycoprotein VSG2 on …; experiment: Western blot of washed cells after incubation with nanobody
[4] = target: T2, Variant Surface Glycoprotein VSG2, …; experiment: SEC

B1: Variant Surface Glycoprotein VSG2, soluble purified form (natural protein, Trypanosoma brucei, UniProt P26332 27-459, looked up)
chain: AAEKGFKQAFWQPLCQVSEELDDQPKGALFTLQAAASKIQKMRDAALRASIYAEINHGTNRAKAAVIVANHYAMKADSGLEALKQTLSSQEVTATATASYLKGRIDEYLNLLLQTKESGTSGCMMDTSGTNTVTKAGGTIGGVPCKLQLSPIQPKRPAATYLGKAGYVGLTRQADAANNFHDNDAECRLASGHNTNGLGKSGQLSAAVTMAAGYVTVANSQTAVTVQALDALQEASGAAHQPWIDAWKAKKALTGAETAEFRNETAGIAGKTGVTKLVEEALLKKKDSEASEIQTELKKYFSGHENEQWTAIEKLISEQPVAQNLVGDNQPTKLGELEGNAKLTTILAYYRMETAGKFEVLTQKHKPAESQQQAAETEGSCNKKDQNECKSPCKWHNDAENKKCTLDKEEAKKVADETAKDGKTGNTNTTGSS
binding result (crystal structure): binds

B2: NB14_(VSG2) sortagged with FAM (VHH)
VHH: QVQLQESGGGLVQAGGSLRLSCEASGLTFSNYAMAWFRQAPEKEREFVAGISWTGSRTYYADSVRGRFTTSRDGHKNTVYLQMNDLKPEDTAVYLCAADLLGSGKDGTSVYEYWGQGTQVTVSS
binding result [1]: binds

B3: NB14_(VSG2) (VHH)
VHH: B2 VHH
binding result [2]: binds | binding result [3]: binds

B4: NB9_(VSG2) (VHH)
VHH: QVQLQESGGGLVQAGGSLRLSCTTSGLTFSNYAFSWFRQAPGEEREFVGAISWSGGRTDYADSVKGRFTISRDNAKNTFYLQMNSLKTEDTAVYYCAADLLGEGSRRSEYEYWGQGTQVTVSS
binding result [2]: binds | binding result [3]: binds

B5: NB9_(VSG2) sortagged with FAM (VHH)
VHH: B4 VHH
binding result [1]: binds

B6: NB11_(VSG2) mutant L100A (VHH)
VHH: QVQLQESGGGLVQAGGSLTLSCAVSGLTFSNYAMGWFRQAPGKEREFVAAITWDGGNTYYTDSVKGRFTISRDNAKNTVFLQMNSLKPEDTAVYYCAAKALGSSRYELALAGYDYWGQGTQVTVSS
binding result [4]: binds

B7: NB11_(VSG2) mutant S103A (VHH)
VHH: B6 VHH with A100L, S103A
binding result [4]: binds

B8: NB11_(VSG2) mutant L101A (VHH)
VHH: B6 VHH with A100L, L101A
binding result [4]: binds

B9: NB11_(VSG2) triple mutant L100/L101/S103 (VHH)
VHH: B6 VHH with L101A, S103A
binding result [4]: no binding

B10: NB19_(VSG2) sortagged with FAM (VHH)
VHH: QVQLQESGGGLVQAGGSLRLSCAASERTFSSLGMGWFRQGPGKEREFAAAISWSGVSTYYADSVKGRFTISRDNDKNTVYLQMNSLKPDDTAVYYCAATSSWNDMALKSAGWYEYWGQGTQVTVSS
binding result [1]: binds

B11: NB19_(VSG2) mutant E114/Y115A (VHH)
VHH: B10 VHH with E114A, Y115A
binding result [4]: no binding

B12: NB19_(VSG2) (VHH)
VHH: B10 VHH
binding result [4]: binds | binding result [3]: binds

B13: NB19_(VSG2) mutant Y115A (VHH)
VHH: B10 VHH with Y115A
binding result [4]: no binding

B14: NB19_(VSG2) mutant E114A (VHH)
VHH: B10 VHH with E114A
binding result [4]: no binding
